Data taken from patent US20100143368A1 (Bristol-Myers Squibb, published 2010).
Positions count from the first letter of the chain named. Numbers in names are those of the source.

T1: full-length human CD22 expressed on the cell surface (human, UniProt P20273 20-847)
T1 construct: One molecule is used both for CHO transfectants with the full-length CD22 cDNA and for endogenous CD22 on Raji/Daudi cells; also called CHO-CD22; CHO cells transfected with full-length CD22
T1 sequence (looked up): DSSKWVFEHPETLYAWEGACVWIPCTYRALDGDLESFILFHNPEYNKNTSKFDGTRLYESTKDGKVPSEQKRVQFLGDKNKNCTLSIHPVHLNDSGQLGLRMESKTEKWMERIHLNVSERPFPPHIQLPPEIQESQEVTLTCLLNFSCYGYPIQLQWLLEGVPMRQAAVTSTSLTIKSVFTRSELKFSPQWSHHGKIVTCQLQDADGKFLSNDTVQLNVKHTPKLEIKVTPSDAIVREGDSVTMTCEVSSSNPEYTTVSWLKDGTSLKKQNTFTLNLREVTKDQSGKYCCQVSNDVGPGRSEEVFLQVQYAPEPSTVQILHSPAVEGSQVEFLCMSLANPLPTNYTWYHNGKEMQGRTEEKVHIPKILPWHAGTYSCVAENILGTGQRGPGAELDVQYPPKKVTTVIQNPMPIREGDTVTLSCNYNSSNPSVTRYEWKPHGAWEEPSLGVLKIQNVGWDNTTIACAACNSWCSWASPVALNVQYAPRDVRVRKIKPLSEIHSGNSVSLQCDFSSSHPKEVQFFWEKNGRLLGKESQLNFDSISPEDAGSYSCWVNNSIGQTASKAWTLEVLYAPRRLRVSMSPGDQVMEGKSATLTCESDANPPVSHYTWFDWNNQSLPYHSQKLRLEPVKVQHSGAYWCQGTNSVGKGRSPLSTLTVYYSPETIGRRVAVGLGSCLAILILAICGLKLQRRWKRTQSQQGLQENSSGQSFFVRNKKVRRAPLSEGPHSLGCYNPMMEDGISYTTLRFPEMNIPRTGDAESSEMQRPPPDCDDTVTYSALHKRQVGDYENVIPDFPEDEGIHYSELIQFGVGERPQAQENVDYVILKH

T2: recombinant human CD22 extracellular domain with C-terminal hexahistidine tag (human, UniProt P20273 20-687)
T2 construct: The whole entry is named here; also called CD22 ECD; CD22β extracellular domain
T2 sequence: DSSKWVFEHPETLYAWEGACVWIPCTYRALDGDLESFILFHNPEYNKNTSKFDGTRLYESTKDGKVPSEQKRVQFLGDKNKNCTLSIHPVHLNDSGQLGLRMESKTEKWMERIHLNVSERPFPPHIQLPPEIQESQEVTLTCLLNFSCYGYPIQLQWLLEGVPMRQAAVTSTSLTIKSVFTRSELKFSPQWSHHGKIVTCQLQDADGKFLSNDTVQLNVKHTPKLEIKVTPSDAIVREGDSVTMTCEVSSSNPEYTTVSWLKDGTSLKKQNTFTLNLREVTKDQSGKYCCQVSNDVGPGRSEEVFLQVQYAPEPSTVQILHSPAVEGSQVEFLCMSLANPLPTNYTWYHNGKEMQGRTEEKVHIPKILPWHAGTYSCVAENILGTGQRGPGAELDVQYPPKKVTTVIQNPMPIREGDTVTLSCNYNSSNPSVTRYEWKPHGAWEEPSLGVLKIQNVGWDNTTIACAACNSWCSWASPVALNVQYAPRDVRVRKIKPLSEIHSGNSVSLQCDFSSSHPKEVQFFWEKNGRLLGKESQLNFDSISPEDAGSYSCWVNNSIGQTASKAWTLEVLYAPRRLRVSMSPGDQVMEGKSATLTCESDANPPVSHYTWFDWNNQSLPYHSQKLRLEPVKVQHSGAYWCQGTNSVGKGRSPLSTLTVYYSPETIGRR

B1: recombinant human anti-CD22 monoclonal antibody CD22.1 (antibody, human IgG1, V domains shown)
VH: QVQLQQWGAGLLKPSETLSLTCAVYGRSFSSYYWSWIRQPPGKGLEWIGDINHSGSTNYNPSLKSRVTISVDTSKNQFSLKLSSVTAADTAVYYCAGTFYDILTGYYPLGYWGPGTLVTVSS
VL: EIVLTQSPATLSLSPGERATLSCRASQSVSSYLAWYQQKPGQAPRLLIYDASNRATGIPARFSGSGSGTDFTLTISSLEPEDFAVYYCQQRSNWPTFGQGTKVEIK
notes: also called 19A3 expressed in CHO cells (clone 8G9)
B2: anti-CD22 human monoclonal antibody 19A3 (antibody, IgG1, V domains shown)
VH: B1 VH
VL: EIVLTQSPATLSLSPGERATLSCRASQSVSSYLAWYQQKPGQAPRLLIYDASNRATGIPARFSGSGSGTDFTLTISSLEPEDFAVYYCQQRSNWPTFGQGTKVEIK
notes: Hybridoma-derived; also called parental antibody 19A3
B3: recombinant human anti-CD22 monoclonal antibody CD22.2 (antibody, human IgG1, V domains shown)
VH: B1 VH with N52Q
VL: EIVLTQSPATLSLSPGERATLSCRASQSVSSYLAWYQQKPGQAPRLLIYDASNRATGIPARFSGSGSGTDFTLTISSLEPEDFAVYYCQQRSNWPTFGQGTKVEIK
notes: Variant of 19A3 with N57Q, which removes the N-glycosylation site in VH CDR2; also called 19A3 VH N57Q variant (clone 17E11)
B4: anti-CD22 human monoclonal antibody 12C5 (antibody, IgG1, V domains shown)
VH: QVQLVQSGSELKKPGASVKVSCKASGYTFTSYAMNWVRQAPGQGLEWMGWINTNTGNPTYAQGFTGRFVFSLDTSVSTAYLQISSLKAEDTAVYYCARLFYYYFGMDVWGQGTTVTVSS
VL: QSALTQPASVSGSPGQSITISCTGTSSDVGSYNLVSWYQLHPGKAPKLMIYEVSKRPSGVSNRFSGSRSGNTASLTISGLQAEDEADYYCCSYANSSTLVFGGGTKLTVL
notes: Hybridoma-derived

Assays:
[1] = target: T1, full-length human CD22 expressed on the …; assay: flow cytometry (FACS Array) on CHO cells transfected with full-length CD22, goat anti-human IgG-PE
[2] = target: T2, recombinant human CD22 extracellular …; assay: SPR (BIAcore 3000); CD22 ECD-His captured by anti-His mAb on CM5 chip, antibody injected at 20 µg/mL
Protocol: For determination of antibody affinity (KD), experiments were performed in which the CD22 antigen was captured on a BIAcore chip using an antibody to the His tag present on the antigen. Anti-His monoclonal antibody ab15149 (Abcam, Stock conc.0.5 mg/mL) was coated on a CM5 chip at high density (3500RUs), as recommended by the manufacturer. CD22 ECD (6.6 μg/mL) was captured on this surface for 60 sec at a flow-rate of 6 μL/min. A single concentration (20 μg/mL) of anti-CD22 purified mAbs was injected over the captured antigen with an association time of 5 minutes and a dissociation time of 8 minutes, at a flow rate of […]. The chip surface was regenerated after each cycle with 10 μL of 25 mM NaOH. Isotype controls were run on the chip and the data used to subtract non-specific binding. All experiments were carried out on a BIAcore 3000 surface plasmon resonance instrument, using BIAcore Control software v 3.2. Data analysis was carried out using BiaEvaluation v. 3.2 software.
Fourteen of the selected anti-CD22 antibodies were tested in the affinity experiment.

Binder | EC50 (read off the curve) [1] [µg/mL] | Kd [2] [nM]
B1 | ~0.3 | 
B2 |  | 0.15
B3 | ~0.3 | 
B4 |  | 0.23
